Source: patent publication CN116745314A (VIR BIOTECHNOLOGY CO LTD, dated 2023)

Molecular target: spike glycoprotein of live SARS-CoV-2 (isolate USA-WA1/2020) (SARS-CoV-2, UniProt P0DTC2 14-1273)
Experiment: cell-based or functional assay

B1: S2E12 (antibody, V domains shown)
VH: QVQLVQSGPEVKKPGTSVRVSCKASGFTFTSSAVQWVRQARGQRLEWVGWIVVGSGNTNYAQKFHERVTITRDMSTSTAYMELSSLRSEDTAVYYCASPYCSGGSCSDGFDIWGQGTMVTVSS
VL: DIVLTQTPGTLSLSPGERATLSCRASQSVSSSYLAWYQQKPGQAPRLLIYGASSRATGIPDRFSGSGSGTDFTLTISRLEPEDFAVYYCQQYVGLTGWTFGQGTKVEIK
EC50 (live SARS-CoV-2 neutralisation): 5 ng/mL
IC50 (live SARS-CoV-2 neutralisation): 5.41 ng/mL
